The values that follow come from article PMC4356373, “The structure of the hexameric atrazine chlorohydrolase AtzA” (Acta Crystallographica Section D: Biological Crystallography, 2015).

Usually stoichiometry N stands for a count of units in the complex or per binding partner.

Data set [1] concerns the molecule itself. Put plainly: crystal structure; two crystal forms: P22(1)2(1) at 2.8 Å (two hexamers in the asymmetric unit) and P2(1)2(1)2(1) at 2.2 Å (one hexamer); PEG 8000 or PEG 10 000, 50 mM HEPES pH 7.1-7.3, 281 K.
Data set [2] concerns the molecule itself. Description: SEC; purified variant, size by SEC; data not shown. (In general: SEC sorts molecules by how far they enter the pores of the column.)

Positions count from the first letter of the chain named.

B1: Atrazine chlorohydrolase (AtzA), wild type (enzyme, Pseudomonas sp. strain ADP)
chain: MQTLSIQHGTLVTMDQYRRVLGDSWVHVQDGRIVALGVHAESVPPPADRVIDARGKVVLPGFINAHTHVNQILLRGGPSHGRQFYDWLFNVVYPGQKAMRPEDVAVAVRLYCAEAVRSGITTINENADSAIYPGNIEAAMAVYGEVGVRVVYARMFFDRMDGRIQGYVDALKARSPQVELCSIMEETAVAKDRITALSDQYHGTAGGRISVWPAPATTTAVTVEGMRWAQAFARDRAVMWTLHMAESDHDERIHGMSPAEYMECYGLLDERLQVAHCVYFDRKDVRLLHRHNVKVASQVVSNAYLGSGVAPVPEMVERGMAVGIGTDNGNSNDSVNMIGDMKFMAHIHRAVHRDADVLTPEKILEMATIDGARSLGMDHEIGSIETGKRADLILLDLRHPQTTPHHHLAATIVFQAYGNEVDTVLIDGNVVMENRRLSFLPPERELAFLEEAQSRATAILQRANMVANPAWRSL
notes: Atrazine chlorohydrolase AtzA of Pseudomonas sp. strain ADP, wild-type atzA gene in the pCS150 expression vector; about 470 amino acids; one Fe2+ per monomer; hexamer is a trimer of dimers; also called wild-type protein; source: E. coli BL21 λDE3, purified (Ni-NTA, SEC, thrombin cleavage of the His tag, SEC)
For B1, the “stoichiometry N” value in data set [1] was 6.

B2: AtzA Ala170Thr, Met256Ile, Pro258Thr, Tyr261Ser variant (enzyme, Pseudomonas sp. strain ADP)
chain: B1 chain with A170T, M256I, P258T, Y261S
notes: synthetic gene (Life Technologies) subcloned into pCS150; The PDB entries hold the wild-type parent of the same vector, not this variant; also called AtzA variant; the variant; source: E. coli BL21 λDE3, purified (Ni-NTA, SEC, thrombin cleavage of the His tag, SEC)
Consider B2, for which the “stoichiometry N” value in data set [2] amounted to 2.
